Series [1] addresses T1, CTSL1_1 FRET substrate (ALFKSSFP).
T1 chain: ALFKSSFP

In series [2] the target is T2, CTSL1_2 8-mer FRET substrate Mca-ALFFSSPPK-Dnp.
T2 chain: ALFFSSPPK

B1: Cathepsin K (CTSK) (protein)
chain: APDSVDYRKKGYVTPVKNQGQCGSCWAFSSVGALEGQLKKKTGKLLNLSPQNLVDCVSENDGCGGGYMTNAFQYVQKNRGIDSEDAYPYVGQEESCMYNPTGKAAKCRGYREIPEGNEKALKRAVARVGPVSVAIDASLTSFQFYSKGVYYDESCNSDNLNHAVLAVGYGIQKGNKHWIIKNSWGENWGNKGYILMARNKNNACGIANLASFPKM
Consider B1, for which the “FRET substrate cleavage, specific activity” value in series [1] and in series [2] was “measurably cleaved by CTSK but at a 15× lower level than the CTSL1_1 substrate” throughout.

Values taken from patent publication US20230272028.
